Data taken from article PMC5913134, “The IL-33-PIN1-IRAK-M axis is critical for type 2 immunity in IL-33-induced allergic airway inflammation” (Nature Communications, 2018).

Test system: CD3+ CD4+ T cells
Assay: Lung CD3+ CD4+ T cells after IL-33 challenge
Format: in vivo, mouse
Conditions: IL-33 intranasal, sorted lung T cells, n=3
Protocol: Lungs were digested using Kollagenase D and dispase and the dendritic cells populations (CD11c^+ CD205^+ CD11b^+) were determined by staining the cells using the following antibodies: PE anti mouse CD11c (catalog number 117307), APC anti mouse CD205 (catalog number 138205), FITC anti mouse CD11b (catalog number 101205). For co stimulatory protein expression, FITC anti mouse CD40 (catalog number 124607), FITC anti mouse CD80 (catalog number 104705), FITC anti mouse CD86 (catalog number 105005) were used. […] Cells were analyzed using LSRII flow cytometer and FlowJo software. […]
Supplementary Figure 6. […] ( b) The indicated lungs were digested and the CD3+ CD4+ cells were monitored and cell sorted using APC-CD3 and FITC-CD4 antibodies respectively, for further analysis. […] (c) Sorted CD3+ CD4+ cells from the indicated mice after PBS and IL-33 challenge were analyzed for IL-13 and IL-5 expression (n=3).
(d) Quantification of figure 6E; Dendritic cell CD11b+ expression in WT, Pin1KO and IRAK-M KO mice lungs, either treated with IL-33 or PBS as before. (e) WT and IRAK-M KO mice were either treated with IL-33 or PBS, the lungs were digested and the CD11c+ cells were analyzed for the expression of costimulatory proteins CD40, CD80 and CD86. […]

B1: IL-33: Recombinant mouse IL-33 purchased from BioLegend (protein, UniProt Q8BVZ5 1-266, looked up)
Interleukin-33: MRPRMKYSNSKISPAKFSSTAGEALVPPCKIRRSQQKTKEFCHVYCMRLRSGLTIRKETSYFRKEPTKRYSLKSGTKHEENFSAYPRDSRKRSLLGSIQAFAASVDTLSIQGTSLLTQSPASLSTYNDQSVSFVLENGCYVINVDDSGKDQEQDQVLLRYYESPCPASQSGDGVDGKKLMVNMSPIKDTDIWLHANDKDYSVELQRGDVSPPEQAFFVLHKKSSDFVSFECKNLPGTYIGVKDNQLALVEEKDESCNNIMFKLSKI
Il13 and -5 expression in CD3+ CD4+ T cells: markedly induced expression
